Measurements: FireProtDB (doi:10.1021/bi9910169)

B1: Lysozyme C, P61626 (parent)
chain: MKALIVLGLVLLSVTVQGKVFERCELARTLKRLGMDGYRGISLANWMCLAKWESGYNTRATNYNAGDRSTDYGIFQINSRYWCNDGKTPGAVNACHLSCSALLQDNIADAVACAKRVVRDPQGIRAWVAWRNRCQNRDVRQYVQGCGV

Variants of: B1
Conditions: Homo sapiens; pH 2.5; Thermal; DSC; glycine-HCl 0.05 M; reversible: yes; structure 1LZ1; whole UniProt chain shown

| Variant | Tm | unfolding enthalpy (calorimetric) | unfolding enthalpy (van 't Hoff) |
| --- | --- | --- | --- |
| MKALIVLGLVLLSVTVQGKVFERCELARTLKRLGMDGYRGISLANWMCLAKWESGYNTRATNYNAGDRSTDYGIFQINSRYWCNDGKAPGAVNACHLSCSALLQDNIADAVACAKRVVRDPQGIRAWVAWRNRCQNRDVRQYVQGCGV | 57.3 °C | 98.5 kcal/mol | 99.9 kcal/mol |
| MKALIVLGLVLLSVTVQGKVFERCELARTLKRLGMDGYRGISLANWMCLAKWESGYNVRATNYNAGDRSTDYGIFQINSRYWCNDGKTPGAVNACHLSCSALLQDNIADAVACAKRVVRDPQGIRAWVAWRNRCQNRDVRQYVQGCGV | 57 °C | 96.6 kcal/mol | 104 kcal/mol |
| MKALIVLGLVLLSVTVQGKVFERCELARTLKRLGMDGYRGISLANWMCLAKWESGYNARATNYNAGDRSTDYGIFQINSRYWCNDGKTPGAVNACHLSCSALLQDNIADAVACAKRVVRDPQGIRAWVAWRNRCQNRDVRQYVQGCGV | 56.6 °C | 97.5 kcal/mol | 103 kcal/mol |

Same assay, conditions: Homo sapiens; pH 2.7; Thermal; DSC; glycine-HCl 0.05 M; reversible: yes; structure 1LZ1; whole UniProt chain shown

| Variant | Tm | unfolding enthalpy (calorimetric) | unfolding enthalpy (van 't Hoff) |
| --- | --- | --- | --- |
| MKALIVLGLVLLSVTVQGKVFERCELARTLKRLGMDGYRGISLANWMCLAKWESGYNTRATNYNAGDRSTDYGIFQINSRYWCNDGKAPGAVNACHLSCSALLQDNIADAVACAKRVVRDPQGIRAWVAWRNRCQNRDVRQYVQGCGV | 60 °C | 101 kcal/mol | 104 kcal/mol |
| MKALIVLGLVLLSVTVQGKVFERCELARTLKRLGMDGYRGISLANWMCLAKWESGYNVRATNYNAGDRSTDYGIFQINSRYWCNDGKTPGAVNACHLSCSALLQDNIADAVACAKRVVRDPQGIRAWVAWRNRCQNRDVRQYVQGCGV | 59.2 °C | 93 kcal/mol | 99.9 kcal/mol |
| MKALIVLGLVLLSVTVQGKVFERCELARTLKRLGMDGYRGISLANWMCLAKWESGYNARATNYNAGDRSTDYGIFQINSRYWCNDGKTPGAVNACHLSCSALLQDNIADAVACAKRVVRDPQGIRAWVAWRNRCQNRDVRQYVQGCGV | 59.4 °C | 99.9 kcal/mol | 102 kcal/mol |

Same assay, conditions: Homo sapiens; pH 2.85; Thermal; DSC; glycine-HCl 0.05 M; reversible: yes; structure 1LZ1; whole UniProt chain shown

| Variant | Tm | unfolding enthalpy (calorimetric) | unfolding enthalpy (van 't Hoff) |
| --- | --- | --- | --- |
| MKALIVLGLVLLSVTVQGKVFERCELARTLKRLGMDGYRGISLANWMCLAKWESGYNTRATNYNAGDRSTDYGIFQINSRYWCNDGKAPGAVNACHLSCSALLQDNIADAVACAKRVVRDPQGIRAWVAWRNRCQNRDVRQYVQGCGV | 62.2 °C | 103 kcal/mol | 106 kcal/mol |
| MKALIVLGLVLLSVTVQGKVFERCELARTLKRLGMDGYRGISLANWMCLAKWESGYNVRATNYNAGDRSTDYGIFQINSRYWCNDGKTPGAVNACHLSCSALLQDNIADAVACAKRVVRDPQGIRAWVAWRNRCQNRDVRQYVQGCGV | 63.2 °C | 110 kcal/mol | 113 kcal/mol |
| MKALIVLGLVLLSVTVQGKVFERCELARTLKRLGMDGYRGISLANWMCLAKWESGYNARATNYNAGDRSTDYGIFQINSRYWCNDGKTPGAVNACHLSCSALLQDNIADAVACAKRVVRDPQGIRAWVAWRNRCQNRDVRQYVQGCGV | 63.3 °C | 107 kcal/mol | 114 kcal/mol |

Same assay, conditions: Homo sapiens; pH 3; Thermal; DSC; glycine-HCl 0.05 M; reversible: yes; structure 1LZ1; whole UniProt chain shown

| Variant | Tm | unfolding enthalpy (calorimetric) | unfolding enthalpy (van 't Hoff) |
| --- | --- | --- | --- |
| MKALIVLGLVLLSVTVQGKVFERCELARTLKRLGMDGYRGISLANWMCLAKWESGYNTRATNYNAGDRSTDYGIFQINSRYWCNDGKAPGAVNACHLSCSALLQDNIADAVACAKRVVRDPQGIRAWVAWRNRCQNRDVRQYVQGCGV | 64.7 °C | 107 kcal/mol | 110 kcal/mol |
| MKALIVLGLVLLSVTVQGKVFERCELARTLKRLGMDGYRGISLANWMCLAKWESGYNVRATNYNAGDRSTDYGIFQINSRYWCNDGKTPGAVNACHLSCSALLQDNIADAVACAKRVVRDPQGIRAWVAWRNRCQNRDVRQYVQGCGV | 66.3 °C | 112 kcal/mol | 119 kcal/mol |
| MKALIVLGLVLLSVTVQGKVFERCELARTLKRLGMDGYRGISLANWMCLAKWESGYNARATNYNAGDRSTDYGIFQINSRYWCNDGKTPGAVNACHLSCSALLQDNIADAVACAKRVVRDPQGIRAWVAWRNRCQNRDVRQYVQGCGV | 66.5 °C | 114 kcal/mol | 117 kcal/mol |

Same assay, conditions: Homo sapiens; pH 3.1; Thermal; DSC; glycine-HCl 0.05 M; reversible: yes; structure 1LZ1; whole UniProt chain shown

| Variant | Tm | unfolding enthalpy (calorimetric) | unfolding enthalpy (van 't Hoff) |
| --- | --- | --- | --- |
| MKALIVLGLVLLSVTVQGKVFERCELARTLKRLGMDGYRGISLANWMCLAKWESGYNTRATNYNAGDRSTDYGIFQINSRYWCNDGKAPGAVNACHLSCSALLQDNIADAVACAKRVVRDPQGIRAWVAWRNRCQNRDVRQYVQGCGV | 67.1 °C | 110 kcal/mol | 113 kcal/mol |
| MKALIVLGLVLLSVTVQGKVFERCELARTLKRLGMDGYRGISLANWMCLAKWESGYNVRATNYNAGDRSTDYGIFQINSRYWCNDGKTPGAVNACHLSCSALLQDNIADAVACAKRVVRDPQGIRAWVAWRNRCQNRDVRQYVQGCGV | 68.7 °C | 115 kcal/mol | 123 kcal/mol |
| MKALIVLGLVLLSVTVQGKVFERCELARTLKRLGMDGYRGISLANWMCLAKWESGYNARATNYNAGDRSTDYGIFQINSRYWCNDGKTPGAVNACHLSCSALLQDNIADAVACAKRVVRDPQGIRAWVAWRNRCQNRDVRQYVQGCGV | 68.6 °C | 117 kcal/mol | 121 kcal/mol |

Same assay, conditions: Homo sapiens; pH 2.51; Thermal; DSC; glycine-HCl 0.05 M; reversible: yes; structure 1LZ1; whole UniProt chain shown

| Variant | Tm | unfolding enthalpy (calorimetric) | unfolding enthalpy (van 't Hoff) |
| --- | --- | --- | --- |
| MKALIVLGLVLLSVTVQGKVFERCELARTLKRLGMDGYRGISLANWMCLAKWESGYNTRAVNYNAGDRSTDYGIFQINSRYWCNDGKTPGAVNACHLSCSALLQDNIADAVACAKRVVRDPQGIRAWVAWRNRCQNRDVRQYVQGCGV | 65 °C | 99.9 kcal/mol | 112 kcal/mol |

Same assay, conditions: Homo sapiens; pH 2.71; Thermal; DSC; glycine-HCl 0.05 M; reversible: yes; structure 1LZ1; whole UniProt chain shown

| Variant | Tm | unfolding enthalpy (calorimetric) | unfolding enthalpy (van 't Hoff) |
| --- | --- | --- | --- |
| MKALIVLGLVLLSVTVQGKVFERCELARTLKRLGMDGYRGISLANWMCLAKWESGYNTRAVNYNAGDRSTDYGIFQINSRYWCNDGKTPGAVNACHLSCSALLQDNIADAVACAKRVVRDPQGIRAWVAWRNRCQNRDVRQYVQGCGV | 68.4 °C | 105 kcal/mol | 114 kcal/mol |

Same assay, conditions: Homo sapiens; pH 3.02; Thermal; DSC; glycine-HCl 0.05 M; reversible: yes; structure 1LZ1; whole UniProt chain shown

| Variant | Tm | unfolding enthalpy (calorimetric) | unfolding enthalpy (van 't Hoff) |
| --- | --- | --- | --- |
| MKALIVLGLVLLSVTVQGKVFERCELARTLKRLGMDGYRGISLANWMCLAKWESGYNTRAVNYNAGDRSTDYGIFQINSRYWCNDGKTPGAVNACHLSCSALLQDNIADAVACAKRVVRDPQGIRAWVAWRNRCQNRDVRQYVQGCGV | 73 °C | 108 kcal/mol | 118 kcal/mol |

Same assay, conditions: Homo sapiens; pH 3.2; Thermal; DSC; glycine-HCl 0.05 M; reversible: yes; structure 1LZ1; whole UniProt chain shown

| Variant | Tm | unfolding enthalpy (calorimetric) | unfolding enthalpy (van 't Hoff) |
| --- | --- | --- | --- |
| MKALIVLGLVLLSVTVQGKVFERCELARTLKRLGMDGYRGISLANWMCLAKWESGYNTRAVNYNAGDRSTDYGIFQINSRYWCNDGKTPGAVNACHLSCSALLQDNIADAVACAKRVVRDPQGIRAWVAWRNRCQNRDVRQYVQGCGV | 75.4 °C | 113 kcal/mol | 121 kcal/mol |

Same assay, conditions: Homo sapiens; pH 2.54; Thermal; DSC; glycine-HCl 0.05 M; reversible: yes; structure 1LZ1; whole UniProt chain shown

| Variant | Tm | unfolding enthalpy (calorimetric) | unfolding enthalpy (van 't Hoff) |
| --- | --- | --- | --- |
| MKALIVLGLVLLSVTVQGKVFERCELARTLKRLGMDGYRGISLANWMCLAKWESGYNTRAANYNAGDRSTDYGIFQINSRYWCNDGKTPGAVNACHLSCSALLQDNIADAVACAKRVVRDPQGIRAWVAWRNRCQNRDVRQYVQGCGV | 61.1 °C | 104 kcal/mol | 105 kcal/mol |

Same assay, conditions: Homo sapiens; pH 2.74; Thermal; DSC; glycine-HCl 0.05 M; reversible: yes; structure 1LZ1; whole UniProt chain shown

| Variant | Tm | unfolding enthalpy (calorimetric) | unfolding enthalpy (van 't Hoff) |
| --- | --- | --- | --- |
| MKALIVLGLVLLSVTVQGKVFERCELARTLKRLGMDGYRGISLANWMCLAKWESGYNTRAANYNAGDRSTDYGIFQINSRYWCNDGKTPGAVNACHLSCSALLQDNIADAVACAKRVVRDPQGIRAWVAWRNRCQNRDVRQYVQGCGV | 64.5 °C | 108 kcal/mol | 109 kcal/mol |

Same assay, conditions: Homo sapiens; pH 2.9; Thermal; DSC; glycine-HCl 0.05 M; reversible: yes; structure 1LZ1; whole UniProt chain shown

| Variant | Tm | unfolding enthalpy (calorimetric) | unfolding enthalpy (van 't Hoff) |
| --- | --- | --- | --- |
| MKALIVLGLVLLSVTVQGKVFERCELARTLKRLGMDGYRGISLANWMCLAKWESGYNTRAANYNAGDRSTDYGIFQINSRYWCNDGKTPGAVNACHLSCSALLQDNIADAVACAKRVVRDPQGIRAWVAWRNRCQNRDVRQYVQGCGV | 67.1 °C | 111 kcal/mol | 112 kcal/mol |
